Experimental data taken from article PMC13572001, “Sequence-based artificial intelligence-guided inhibitory peptides to counteract AAV neutralizing antibodies in gene therapy” (Molecular Therapy Advances, 2026).

Experiment: Safety assessment after i.p. peptide mixture in mice
Conditions: positive control, same conditions, day 7
Method: To assess potential immunogenicity following peptide administration, we performed enzyme-linked immunosorbent assays (ELISA) to measure peptide-specific IgG responses.
(E) Detection of peptide-specific IgG in plasma by ELISA following peptide or control antigen administration.
Mice were injected (i.p.) with human-derived or viral-derived peptide mixtures, or OVA protein (InvivoGen #vac-pova). Plasma was collected at 24 h for cytokine analysis (BD #552364) and at day 7 for peptide- or OVA-specific antibody detection via direct ELISA.

B1: OVA: OVA protein (InvivoGen #vac-pova), positive control (protein, UniProt P01012 2-386, looked up)
Ovalbumin: GSIGAASMEFCFDVFKELKVHHANENIFYCPIAIMSALAMVYLGAKDSTRTQINKVVRFDKLPGFGDSIEAQCGTSVNVHSSLRDILNQITKPNDVYSFSLASRLYAEERYPILPEYLQCVKELYRGGLEPINFQTAADQARELINSWVESQTNGIIRNVLQPSSVDSQTAMVLVNAIVFKGLWEKAFKDEDTQAMPFRVTEQESKPVQMMYQIGLFRVASMASEKMKILELPFASGTMSMLVLLPDEVSGLEQLESIINFEKLTEWTSSNVMEERKIKVYLPRMKMEEKYNLTSVLMAMGITDVFSSSANLSGISSAESLKISQAVHAAHAEINEAGREVVGSAEAGVDAASVSEEFRADHPFLFCIKHIATNAVLFFGRCVSP
OVA-specific antibody response (direct ELISA): robust antibody response
